# Results from patent publication US20240392004A1 (IMMUNOWAKE, published 2024).
# T1: mouse PD-1 (mouse, UniProt Q02242 25-167, limits assumed)
# T1 construct: also called mPD-1
# T1 sequence (looked up): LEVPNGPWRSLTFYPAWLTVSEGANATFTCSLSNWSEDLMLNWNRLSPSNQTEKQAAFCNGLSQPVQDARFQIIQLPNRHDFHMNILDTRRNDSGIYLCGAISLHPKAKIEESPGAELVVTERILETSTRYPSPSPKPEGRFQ
# T2: human IL-2 receptor (IL-2Rα, IL-2Rβ, IL-2Rγ) (human, UniProt P01589 22-272; P14784 27-551; P31785 23-369)
# T2 sequence (looked up) 1: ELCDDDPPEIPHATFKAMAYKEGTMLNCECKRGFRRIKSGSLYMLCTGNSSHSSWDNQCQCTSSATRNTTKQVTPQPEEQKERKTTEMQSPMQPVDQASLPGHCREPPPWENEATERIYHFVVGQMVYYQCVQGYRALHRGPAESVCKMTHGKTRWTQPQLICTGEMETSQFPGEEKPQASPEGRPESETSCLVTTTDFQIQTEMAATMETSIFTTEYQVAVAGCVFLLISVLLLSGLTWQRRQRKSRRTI
# T2 sequence (looked up) 2: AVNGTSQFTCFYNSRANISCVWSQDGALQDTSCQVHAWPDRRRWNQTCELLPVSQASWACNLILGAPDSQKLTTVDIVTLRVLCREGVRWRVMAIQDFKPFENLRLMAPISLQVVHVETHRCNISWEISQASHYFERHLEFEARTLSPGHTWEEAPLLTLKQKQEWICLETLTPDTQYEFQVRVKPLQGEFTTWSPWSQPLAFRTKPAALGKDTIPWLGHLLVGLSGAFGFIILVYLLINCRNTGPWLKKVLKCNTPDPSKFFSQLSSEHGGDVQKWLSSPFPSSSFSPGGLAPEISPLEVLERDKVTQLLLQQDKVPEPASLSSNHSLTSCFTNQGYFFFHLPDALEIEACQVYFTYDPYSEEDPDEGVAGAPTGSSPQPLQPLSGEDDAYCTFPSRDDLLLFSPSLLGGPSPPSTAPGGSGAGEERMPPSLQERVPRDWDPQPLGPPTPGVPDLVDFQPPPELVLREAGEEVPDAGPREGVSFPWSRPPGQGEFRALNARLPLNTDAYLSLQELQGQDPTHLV
# T2 sequence (looked up) 3: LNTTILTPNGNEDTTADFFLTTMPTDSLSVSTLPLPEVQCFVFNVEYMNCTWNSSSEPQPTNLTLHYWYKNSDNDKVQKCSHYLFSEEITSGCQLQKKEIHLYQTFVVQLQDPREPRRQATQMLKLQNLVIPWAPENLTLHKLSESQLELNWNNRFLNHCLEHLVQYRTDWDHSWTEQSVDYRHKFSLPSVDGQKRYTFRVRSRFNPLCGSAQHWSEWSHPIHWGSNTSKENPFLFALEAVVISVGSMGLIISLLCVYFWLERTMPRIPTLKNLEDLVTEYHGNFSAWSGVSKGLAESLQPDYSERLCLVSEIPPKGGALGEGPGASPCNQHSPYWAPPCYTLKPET
# T3: IFN-γ receptor (IFNGR1 and IFNGR2) (UniProt P15260 18-489; P38484 22-337, limits assumed)
# T3 sequence (looked up) 1: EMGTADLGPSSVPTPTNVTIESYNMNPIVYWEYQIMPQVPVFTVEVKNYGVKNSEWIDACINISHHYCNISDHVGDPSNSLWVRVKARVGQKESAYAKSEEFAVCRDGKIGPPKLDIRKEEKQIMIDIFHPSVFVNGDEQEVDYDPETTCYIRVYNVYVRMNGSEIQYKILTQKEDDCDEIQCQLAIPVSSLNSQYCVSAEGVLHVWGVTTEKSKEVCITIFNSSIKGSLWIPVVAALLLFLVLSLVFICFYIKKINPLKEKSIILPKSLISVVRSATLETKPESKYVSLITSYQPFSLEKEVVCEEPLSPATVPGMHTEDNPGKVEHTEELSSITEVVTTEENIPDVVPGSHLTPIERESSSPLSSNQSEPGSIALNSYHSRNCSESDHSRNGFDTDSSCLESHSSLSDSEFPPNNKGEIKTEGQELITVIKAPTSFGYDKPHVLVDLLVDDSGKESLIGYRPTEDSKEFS
# T3 sequence (looked up) 2: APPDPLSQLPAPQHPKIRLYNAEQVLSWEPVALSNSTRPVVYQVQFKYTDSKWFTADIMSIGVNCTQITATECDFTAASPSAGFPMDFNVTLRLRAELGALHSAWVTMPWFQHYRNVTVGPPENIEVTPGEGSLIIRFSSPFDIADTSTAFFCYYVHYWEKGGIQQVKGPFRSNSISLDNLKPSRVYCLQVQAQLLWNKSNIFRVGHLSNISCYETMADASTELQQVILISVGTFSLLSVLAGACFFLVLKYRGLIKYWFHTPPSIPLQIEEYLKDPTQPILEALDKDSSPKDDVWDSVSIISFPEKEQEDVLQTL
# T4: human TIGIT on HEK-Blue reporter cells (human, UniProt Q495A1 22-244)
# T4 sequence (looked up): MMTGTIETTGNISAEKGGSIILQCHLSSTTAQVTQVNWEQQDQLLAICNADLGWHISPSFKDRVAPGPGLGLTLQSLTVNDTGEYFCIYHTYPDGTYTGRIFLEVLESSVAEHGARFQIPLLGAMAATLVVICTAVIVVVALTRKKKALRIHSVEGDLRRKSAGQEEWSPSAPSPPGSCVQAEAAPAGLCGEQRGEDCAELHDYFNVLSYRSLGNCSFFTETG
# B1: IL-12(E59A/F60A)/PD-L2(WT)-Fc (Fc fusion)
# chain 1: LFTVTVPKELYIIEHGSNVTLECNFDTGSHVNLGAITASLQKVENDTSPHRERATLLEEQLPLGKASFHIPQVQVRDEGQYQCIIIYGVAWDYKYLTLKVKASYRKINTHILKVPETDEVELTCQATGYPLAEVSWPNVSVPANTSHSRTPEGLYQVTSVLRLKPPPGRNFSCVFWNTHVRELTLASIDLQSQMEPRTHPTGSGIWELKKDVYVVELDWYPDAPGEMVVLTCDTPEEDGITWTLDQSSEVLGSGKTLTIQVKAAGDAGQYTCHKGGEVLSHSLLLLHKKEDGIWSTDILKDQKEPKNKTFLRCEAKNYSGRFTCWWLTTISTDLTFSVKSSRGSSDPQGVTCGAATLSAERVRGDNKEYEYSVECQEDSACPAAEESLPIEVMVDAVHKLKYENYTSSFFIRDIIKPDPPKNLQLKPLKNSRQVEVSWEYPDTWSTPHSYFSLTFCVQVQGKSKREKKDRVFTDKTSATVICRKNASISVRAQDRYYSSSWSEWASVPCSGGGGSGGGGSGGGGSGGGGSGRNLPVATPDPGMFPCLHHSQNLLRAVSNMLQKARQTLEFYPCTSEEIDHEDITKDKTSTVEACLPLELTKNESCLNSRETSFITNGSCLASRKTSFMMALCLSSIYEDLKMYQVEFKTMNAKLLMDPKRQIFLDQNMLAVIDELMQALNFNSETVPQKSSLEEPDFYKTKIKLCILLHAFRIRAVTIDRVMSYLNASDKTHTCPPCPAPEDEGGPSVFLFPPKPKDTLMISRTPEVTCVVVDVSHEDPEVKFNWYVDGVEVHNAKTKPREEQYNSTYRVVSVLTVLHQDWLNGKEYKCKVSNKALPAPIEKTISKAKGQPREPQVYVYPPSREEMTKNQVSLTCLVKGFYPSDIAVEWESNGQPENNYKTTPPVLDEDGSFALVSKLTVDKSRWQQGNVFSCSVMHEALHNHYTQKSLSLSPGK
# chain 2: LFTVTVPKELYIIEHGSNVTLECNFDTGSHVNLGAITASLQKVENDTSPHRERATLLEEQLPLGKASFHIPQVQVRDEGQYQCIIIYGVAWDYKYLTLKVKASYRKINTHILKVPETDEVELTCQATGYPLAEVSWPNVSVPANTSHSRTPEGLYQVTSVLRLKPPPGRNFSCVFWNTHVRELTLASIDLQSQMEPRTHPTGSGDKTHTCPPCPAPEKKGGPSVFLFPPKPKDTLMISRTPEVTCVVVDVSHEDPEVKFNWYVDGVEVHNAKTKPREEQYNSTYRVVSVLTVLHQDWLNGKEYKCKVSNKALPAPIEKTISKAKGQPREPQVYVLPPSREEMTKNQVSLLCLVKGFYPSDIAVEWESNGQPENRYMTWPPVLDSDGSFFLYSKLTVDKSRWQQGNVFSCSVMHEALHNHYTQKSLSLSPGK
# notes: also called IL-12(E59A/F60A)/PD-L2-Fc; construct #29
# B2: anti-PD-1 antibody nivolumab (Opdivo) (antibody, human IgG4 S228P, kappa, V domains shown)
# VH: QVQLVESGGGVVQPGRSLRLDCKASGITFSNSGMHWVRQAPGKGLEWVAVIWYDGSKRYYADSVKGRFTISRDNSKNTLFLQMNSLRAEDTAVYYCATNDDYWGQGTLVTVSS
# VL: EIVLTQSPATLSLSPGERATLSCRASQSVSSYLAWYQQKPGQAPRLLIYDASNRATGIPARFSGSGSGTDFTLTISSLEPEDFAVYYCQQSSNWPRTFGQGTKVEIKR
# B3: IFN-γ(A23V/A23V)/CD155-Fc/IL-12(E59A/F60A) (Fc fusion)
# chain 1: WPPPGTGDVVVQAPTQVPGFLGDSVTLPCYLQVPNMEVTHVSQLTWARHGESGSMAVFHQTQGPSYSESKRLEFVAARLGAELRNASLRMFGLRVEDEGNYTCLFVTFPQGSRSVDIWLRVLAKPQNTAEVQKVQLTGEPVPMARCVSTGGRPPAQITWHSDLGGMPNTSQVPGFLSGTVTVTSLWILVPSSQVDGKNVTCKVEHESFEKPQLLTVNLTVYYPPEVSISGYDNNWYLGQNEATLTCDARSNPEPTGYNWSTTMGPLPPFAVAQGAQLLIRPVDKPINTTLICNVTNALGARQAELTVQVKEGPPSEHSGISRNGGGGSGGGDKTHTCPPCPAPEDEGGPSVFLFPPKPKDTLMISRTPEVTCVVVDVSHEDPEVKFNWYVDGVEVHNAKTKPREEQYNSTYRVVSVLTVLHQDWLNGKEYKCKVSNKALPAPIEKTISKAKGQPREPQVYVYPPSREEMTKNQVSLTCLVKGFYPSDIAVEWESNGQPENNYKTTPPVLDEDGSFALVSKLTVDKSRWQQGNVFSCSVMHEALHNHYTQKSLSLSPGKGGGGSGGGIWELKKDVYVVELDWYPDAPGEMVVLTCDTPEEDGITWTLDQSSEVLGSGKTLTIQVKAAGDAGQYTCHKGGEVLSHSLLLLHKKEDGIWSTDILKDQKEPKNKTFLRCEAKNYSGRFTCWWLTTISTDLTFSVKSSRGSSDPQGVTCGAATLSAERVRGDNKEYEYSVECQEDSACPAAEESLPIEVMVDAVHKLKYENYTSSFFIRDIIKPDPPKNLQLKPLKNSRQVEVSWEYPDTWSTPHSYFSLTFCVQVQGKSKREKKDRVFTDKTSATVICRKNASISVRAQDRYYSSSWSEWASVPCSGGGGSGGGSGGGGSRNLPVATPDPGMFPCLHHSQNLLRAVSNMLQKARQTLEFYPCTSEEIDHEDITKDKTSTVEACLPLELTKNESCLNSRETSFITNGSCLASRKTSFMMALCLSSIYEDLKMYQVEFKTMNAKLLMDPKRQIFLDQNMLAVIDELMQALNFNSETVPQKSSLEEPDFYKTKIKLCILLHAFRIRAVTIDRVMSYLNAS
# chain 2: WPPPGTGDVVVQAPTQVPGFLGDSVTLPCYLQVPNMEVTHVSQLTWARHGESGSMAVFHQTQGPSYSESKRLEFVAARLGAELRNASLRMFGLRVEDEGNYTCLFVTFPQGSRSVDIWLRVLAKPQNTAEVQKVQLTGEPVPMARCVSTGGRPPAQITWHSDLGGMPNTSQVPGFLSGTVTVTSLWILVPSSQVDGKNVTCKVEHESFEKPQLLTVNLTVYYPPEVSISGYDNNWYLGQNEATLTCDARSNPEPTGYNWSTTMGPLPPFAVAQGAQLLIRPVDKPINTTLICNVTNALGARQAELTVQVKEGPPSEHSGISRNGGGSGQDPYVKEAENLKKYFNAGHSDVVDNGTLFLGILKNWKEESDRKIMQSQIVSFYFKLFKNFKDDQSIQKSVETIKEDMNVKFFNSNKKKRDDFEKLTNYSVTDLNVQRKAIHELIQVMAELSPAAKTGKRKRSQMLFRGGGGSGGGGSGGGGSGGGGSQDPYVKEAENLKKYFNAGHSDVVDNGTLFLGILKNWKEESDRKIMQSQIVSFYFKLFKNFKDDQSIQKSVETIKEDMNVKFFNSNKKKRDDFEKLTNYSVTDLNVQRKAIHELIQVMAELSPAAKTGKRKRSQMLFRGGGGGSGGGDKTHTCPPCPAPEKKGGPSVFLFPPKPKDTLMISRTPEVTCVVVDVSHEDPEVKFNWYVDGVEVHNAKTKPREEQYNSTYRVVSVLTVLHQDWLNGKEYKCKVSNKALPAPIEKTISKAKGQPREPQVYVLPPSREEMTKNQVSLLCLVKGFYPSDIAVEWESNGQPENRYMTWPPVLDSDGSFFLYSKLTVDKSRWQQGNVFSCSVMHEALHNHYTQKSLSLSPGK
# Columns and labels:
# [1] = biological target: T1, mouse PD-1; assay: same value as Table 15 (measured in PD-L2-Fc format)
# [2] = biological target: T2, human IL-2 receptor (IL-2Rα, IL-2Rβ, …); assay: cell-based or functional assay
# [3] = biological target: T3, IFN-γ receptor (IFNGR1 and IFNGR2); assay: cell-based or functional assay
# [4] = biological target: human IL-12 receptor complex (IL-12Rβ1 and IL-12Rβ2) (human, UniProt P42701 24-662; Q99665 24-862); assay: cell-based or functional assay
# Sequence of human IL-12 receptor complex (IL-12Rβ1 and IL-12Rβ2) (Q99665 24-862, chain 2 of 2, other chains not shown): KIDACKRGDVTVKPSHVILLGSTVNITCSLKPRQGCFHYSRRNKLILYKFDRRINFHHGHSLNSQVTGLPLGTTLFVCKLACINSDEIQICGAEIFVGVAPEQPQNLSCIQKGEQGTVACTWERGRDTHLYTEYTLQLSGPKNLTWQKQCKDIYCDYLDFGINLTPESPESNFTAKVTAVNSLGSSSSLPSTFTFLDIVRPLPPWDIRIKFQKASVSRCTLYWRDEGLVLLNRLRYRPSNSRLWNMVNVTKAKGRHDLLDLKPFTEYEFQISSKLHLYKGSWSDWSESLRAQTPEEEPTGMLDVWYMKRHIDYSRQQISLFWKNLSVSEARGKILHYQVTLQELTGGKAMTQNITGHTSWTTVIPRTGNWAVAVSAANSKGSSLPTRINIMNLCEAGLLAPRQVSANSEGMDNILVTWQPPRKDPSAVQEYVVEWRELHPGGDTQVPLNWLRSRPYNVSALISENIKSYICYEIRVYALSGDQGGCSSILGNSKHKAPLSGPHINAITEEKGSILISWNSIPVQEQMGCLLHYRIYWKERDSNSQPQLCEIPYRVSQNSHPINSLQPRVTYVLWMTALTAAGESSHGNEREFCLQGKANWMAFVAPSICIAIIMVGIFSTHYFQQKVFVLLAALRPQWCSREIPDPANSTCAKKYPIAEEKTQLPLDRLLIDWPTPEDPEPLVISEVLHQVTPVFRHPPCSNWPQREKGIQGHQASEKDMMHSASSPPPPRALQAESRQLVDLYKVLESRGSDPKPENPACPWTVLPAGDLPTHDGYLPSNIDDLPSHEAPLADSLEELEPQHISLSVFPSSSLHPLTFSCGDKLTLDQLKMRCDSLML
# [5] = biological target: T4, human TIGIT on HEK-Blue reporter cells; assay: cell-based or functional assay
binder,measurement,setting,value
B1,Kd,[1],980 nM
B2,Percent IL-2 signal transduction (HEK-IL-2 reporter assay),[2],0%
B3,"IFN-γ signal transduction, HEK-IFN-γ",[3],< 0.2%
same,"IL-12 signal transduction, HEK-IL-12",[4],2%
same,"IL-12 signal transduction, HEK-IL-12-TIGIT",[5],60%
